Measured values reported in US20210269532A1.

Legend:
[1] = target: cynomolgus AXL extracellular domain transiently expressed on CHO-S cells (cynomolgus); assay: flow cytometry, serial dilution on CHO-S cells transiently expressing cynomolgus AXL ECD, AF647 anti-human IgG secondary, GeoMean (RL1-H)
[2] = target: human AXL extracellular domain transiently expressed on CHO-S cells (human) (UniProt P30530); assay: flow cytometry, serial dilution on CHO-S cells transiently expressing human AXL ECD, AF647 anti-human IgG secondary, GeoMean (RL1-H)
Chain of human AXL extracellular domain transiently expressed on CHO-S cells (human) (P30530 26-451 limits assumed): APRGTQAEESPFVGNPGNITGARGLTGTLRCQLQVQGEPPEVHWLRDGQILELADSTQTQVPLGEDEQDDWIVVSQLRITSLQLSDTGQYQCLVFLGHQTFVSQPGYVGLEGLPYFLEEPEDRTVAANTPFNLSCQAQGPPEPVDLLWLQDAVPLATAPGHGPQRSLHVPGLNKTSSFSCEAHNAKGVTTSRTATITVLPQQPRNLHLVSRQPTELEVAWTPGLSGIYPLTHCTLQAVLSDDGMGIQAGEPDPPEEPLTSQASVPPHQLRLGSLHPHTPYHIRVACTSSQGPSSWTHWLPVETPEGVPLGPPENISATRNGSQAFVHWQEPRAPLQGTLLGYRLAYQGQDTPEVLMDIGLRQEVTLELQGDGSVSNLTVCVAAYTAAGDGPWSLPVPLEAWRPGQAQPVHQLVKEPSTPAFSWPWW

[3] = target: His-tagged human AXL extracellular domain (recombinant) (human) (UniProt P30530); assay: SPR classical sandwich assay (IBIS MX96): 100 nM analyte over AXL-His ECD held by surface-captured 23203-1; white cell = sandwiching
Chain of His-tagged human AXL extracellular domain (recombinant) (human) (P30530 26-451): as the sequence (P30530 26-451 limits assumed) above

[4] = target: His-tagged human AXL extracellular domain (recombinant) (human) (UniProt P30530); assay: SPR classical sandwich assay (IBIS MX96): 100 nM analyte over AXL-His ECD held by surface-captured 22995; white cell = sandwiching
[5] = target: His-tagged human AXL extracellular domain (recombinant) (human) (UniProt P30530); assay: SPR classical sandwich assay (IBIS MX96): 100 nM analyte over AXL-His ECD held by surface-captured 22883; white cell = sandwiching
[6] = target: His-tagged human AXL extracellular domain (recombinant) (human) (UniProt P30530); assay: SPR classical sandwich assay (IBIS MX96): 100 nM analyte over AXL-His ECD held by the surface-captured Control antibody (f2); white cell = sandwiching
[7] = target: His-tagged human AXL extracellular domain (recombinant) (human) (UniProt P30530); assay: SPR classical sandwich assay (IBIS MX96): 100 nM analyte over AXL-His ECD held by surface-captured 10G5 analogue; white cell = sandwiching
[8] = target: His-tagged human AXL extracellular domain (recombinant) (human) (UniProt P30530); assay: SPR classical sandwich assay (IBIS MX96): 100 nM analyte over AXL-His ECD held by surface-captured YW327.6S2 IgG1-LALA analogue; grey cell = blocked (self)

Chain of YW327.6S2 IgG1-LALA analogue (Genentech) (antibody) (VH): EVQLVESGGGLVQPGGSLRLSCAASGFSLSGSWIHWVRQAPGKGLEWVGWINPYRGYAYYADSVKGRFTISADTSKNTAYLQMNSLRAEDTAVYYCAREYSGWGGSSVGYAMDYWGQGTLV
Chain of YW327.6S2 IgG1-LALA analogue (Genentech) (antibody) (VL): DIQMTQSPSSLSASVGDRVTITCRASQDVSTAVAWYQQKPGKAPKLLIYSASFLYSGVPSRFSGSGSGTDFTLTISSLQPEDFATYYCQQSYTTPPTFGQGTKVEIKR

## 10G5 IgG1-LALA analogue (BerGenBio) (antibody)
[1]
  EC50 (read off the curve): 0.008 µg/mL
[2]
  EC50 (read off the curve): 0.006 µg/mL

## Ax225 IgG1-LALA analogue (Chugai) (antibody)
[1]
  EC50 (read off the curve): 0.05 µg/mL
[2]
  EC50 (read off the curve): 0.06 µg/mL

## YW327.6S2 IgG1-LALA analogue (Genentech) (antibody)
[3]
  normalized SPR sandwich response: 1.1
[4]
  normalized SPR sandwich response: 1.1
[5]
  normalized SPR sandwich response: 3.9
[6]
  normalized SPR sandwich response: 1.3
[7]
  normalized SPR sandwich response: 1.2
[8]
  normalized SPR sandwich response: 0
